In publication PMC7095019 one finds ELISA endpoint dilution titre data, which are given here for two substances.

This experiment addresses H1 A/New Caledonia/20/1999 haemagglutinin, wild-type trimeric protein (influenza A virus A/New Caledonia/20/1999 (H1N1)) (UniProt Q6WG00). Description: ELISA. (In an ELISA, binding on a coated surface is turned into a signal by an enzyme label.)

Bounds are passed on as bounds.

Take “CR6261 inferred germline antibody, germline heavy and germline light chain, soluble IgG”: the ELISA endpoint dilution titre was over 100 µg/mL.

“CR6261 somatic (mature) antibody, somatic heavy and somatic light chain, soluble IgG” displayed an ELISA endpoint dilution titre of 0.00133 µg/mL.
